Test [1] addresses T1, human α-synuclein pre-formed fibrils (Human Alpha Synuclein Pre-formed Fibrils Type II, StressMarq SPR-317) (human, UniProt P37840 1-140). Description: SPR (Biacore), antibody captured on anti-hFab CM3 chip, α-syn PFF as analyte (sample PFF-1), single-cycle kinetics, 1:1 Binding fit, 25 °C; Run1. The procedure: The equipment used was Biacore®. Anti-hFab (Sigma, I5260-1ML) diluted in acetate buffer (pH 5.0) was immobilized on the surface of an CM3 chip (GE Healthcare) by amine coupling. […] All procedures in association and dissociation phases were done in single-cycle kinetics. A 1:1 binding model was used for fitting, and the Biacore® T200 Evaluation software was used for the evaluation.

For test [2], the target named is T1, human α-synuclein pre-formed fibrils …. Kind of test: SPR (Biacore), file name 'Main-ProA', α-syn PFF as analyte (sample PFF-1), single-cycle kinetics, 1:1 Binding fit, 25 °C; Run01. For orientation: In SPR one partner is held on a chip, and binding of the other changes the refractive index at the surface.
The target in test [3] is human α-synuclein oligomers (Dopamine HCL Stabilized Human Recombinant Alpha Synuclein Oligomers, StressMarq … (human, UniProt P37840 1-140)). Description: sandwich ELISA, antibody coated, oligomeric α-syn added, 7B7-biotin detection. The procedure: Human α-syn oligomers from StressMarq (Dopamine HCL Stabilized Human Recombinant Alpha Synuclein Oligomers, SPR-466) was used as the oligomeric α-syn in the assay.
In this sandwich ELISA, test antibodies were diluted with PBS by five-fold serial dilution from 80 nM to 0.005 nM. The serially diluted antibodies were added to a 96-well plate at 100 μL/well for coating. The plate was sealed and incubated at 4° C. for 16 hours. After washing with PBS-T five times, the plate was blocked with 5% BSA in PBS 200 μL/well at 37° C. for 2 hours. After washing with PBS-T five times, oligomeric α-syn (2 μg/mL, 100 μL/well in 2% BSA in PBS) was added and incubated at 37° C. for 2 hours. After washing with PBS-T five times, 7B7-biotin antibody (1 μg/mL, 100 μL/well, in 2% BSA in PBS) were added and incubated at 37° C. for 2 hours. After washing with PBS-T five times, the plate was incubated with Streptavidin-HRP in 2% BSA in PBS (1:5000, 1 mg/mL stock, 20 ng/well, 100 μL/well) at 37° C. for 1 hour. After washing with PBS-T five times, TMB (100 μL/well) was added and incubated at RT for 5 minutes. The reaction was stopped by the addition of 0.5 N H₂SO₄ (50 μL/well).
Background: An ELISA detects its analyte on a solid surface through an enzyme-linked reagent.

The target of test [4] is T1, human α-synuclein pre-formed fibrils …. Description: SPR Biacore 'as described above', antibody captured, α-syn PFF analyte, 1:1 model.
The target of test [5] is monomeric human α-synuclein (Active Human Recombinant Alpha Synuclein Protein Monomer type II, StressMarq … (human, UniProt P37840 1-140)). Description: SPR (Biacore T200), antibody captured on Protein A chip, α-syn monomer as analyte (Monomer-4), 25 °C; Run02; number of the software's 1:1 fit printed under a sensorgram without binding response (the filing's Table 18: No-binding). The procedure: The equipment used was Biacore® T200. The anti-α-syn monospecific antibody or the anti-α-syn/IGF1R bispecific antibody was diluted with 1×HBS-EPT. […] Each diluted monomer sample was injected at 60 μL/min onto the Protein A chip surface for 60 seconds, followed by washing with 1×HBS-EP buffer. The dissociation rate was evaluated for 180 seconds. All procedures in association/dissociation phases were done in single cycle kinetics. The chip surface was regenerated by injecting 10 mM glycine-HCl pH 1.5 (GE Healthcare) onto the chip surface for 60 seconds at 30 μL/min, removing residual α-syn monomer/antibody complex. A 1:1 binding model was used for fitting, and the Biacore® T200 Evaluation software was used for evaluation.

For test [6], the target named is T1, human α-synuclein pre-formed fibrils …. Description: sandwich ELISA, antibody coated, α-syn PFF added, 7B7-biotin detection. The procedure:
Specifically, the antibodies were diluted with PBS by six-fold serial dilution from 400 nM to 0.009 nM. The diluted antibodies were added to a 96-well plate at 100 μL/well for coating. The plate was sealed and incubated at 4° C. for 16 hours. After washing with phosphate-buffered saline with Tween® (PBS-T; 0.05% Tween® 20) five times, the plate was blocked with 5% BSA in PBS 200 μL/well at 37° C. for 2 hours. After washing with PBS-T five times, α-syn PFF (2 μg/mL, 100 μL/well in 2% BSA in PBS) was added to the plate and incubated at 37° C. for 2 hours. After washing with PBS-T five times, 7B7-biotin antibody (anti-α-syn antibody; 1 μg/mL/100 μL/well, in 2% BSA in PBS) was added and incubated at 37° C. for 2 hours. After washing with PBS-T five times, the plate was incubated with horseradish peroxidase (HRP)-bound streptavidin in PBS with 2% BSA (1:5000, 1 mg/mL stock, 20 ng/well, 100 μL/well) at 37° C. for 1 hour. After washing with PBS-T five times, 3,3′,5,5′-tetramethylbenzidine (TMB) (100 μL/well) was added and incubated at room temperature for 5 minutes. The reaction was stopped by the addition of 0.5 N H₂SO₄ (50 μL/well). Optical absorbance at 450 nm was measured by using a plate reader, with absorbance at 650 nm subtracted from the reading.

The record followed here is patent US20220380446A1 (ABL BIO, published 2022).

B1: hu1E4(V1_VL1) x Grabody B (bispecific antibody, human IgG1, kappa)
heavy 1: not shown
heavy 2: not shown
light: DIVMTQTPLSLSVTPGQPASISCRSSQSLVHSNGNTYLHWYLQKPGQSPQLLIYKVSNRFSGVPDRFSGSGSGTDFTLKISRVEAEDVGVYYCSQSTHVPRTFGQGTKLEIKRTVAAPSVFIFPPSDEQLKSGTASVVCLLNNFYPREAKVQWKVDNALQSGNSQESVTEQDSKDSTYSLSSTLTLSKADYEKHKVYACEVTHQGLSSPVTKSFNRGEC
notes: Anti-α-syn/IGF1R bispecific; hole heavy chain (M428L) carries the anti-IGF1R scFv Grabody B at its C-terminus through a (G4S)3 linker; knob heavy chain (M428L) without scFv; also called hu1E4(V1 VL1) × Grabody B; 1E4(Ver.1_VL1) × Grabody B
Usually koff stands for the first-order rate constant of dissociation. A word on the kon: it is a measure of how fast the partners come together. Usually EC50 stands for the concentration at which the effect is half-maximal. Usually Kd stands for the constant that tells how readily two partners part at equilibrium. Higher therefore signals lower affinity. As to B1, the koff was 0.00067 s⁻¹ in test [1], 0.000472 s⁻¹ in test [2], 0.000345 s⁻¹ in test [4] and 0.537 s⁻¹ in test [5]. The association rate constant (kon) came to 1.91e+07 M⁻¹ s⁻¹ in test [1], 1.35e+07 M⁻¹ s⁻¹ in test [2], 1.4e+07 M⁻¹ s⁻¹ in test [4] and 46900 M⁻¹ s⁻¹ in test [5]. Besides, the half-maximal effective concentration (EC50) worked out at 3.62 nM in test [3] and 0.236 nM in test [6]. Further, in test [3], the Saturation point stood at 3.18. In test [4], this molecule showed a Kd of 0.025 nM.
